Experimental data reported in patent US20030206905A1.

Molecular target: 161P2F10b (UniProt O14638)
Test: saturation binding ELISA; relative affinity

Kd: 0.28 nM
Substance: 97A6(CD203c)
